The values below come from article PMC8041205.

As a reminder, the Kd is the free concentration of one partner at which half of the binding sites on the other are occupied at equilibrium, for simple one-to-one binding.

Test [1] concerns the target commercially available recombinant MyD88 (UniProt Q99836). As to the kind of experiment: ITC; 1 uM rTcpC in PBS in the titration pool, 0.1 uM UBE2D1 or rMyD88 in PBS in the sample pool; VP-ITC microcalorimeter. Background: ITC needs no label: the signal is the heat of the interaction.
A further test has as its target BSA. The experiment in a line: SPR. The conditions noted are these: natural protein.

Chain of commercially available recombinant MyD88 (Q99836 whole entry): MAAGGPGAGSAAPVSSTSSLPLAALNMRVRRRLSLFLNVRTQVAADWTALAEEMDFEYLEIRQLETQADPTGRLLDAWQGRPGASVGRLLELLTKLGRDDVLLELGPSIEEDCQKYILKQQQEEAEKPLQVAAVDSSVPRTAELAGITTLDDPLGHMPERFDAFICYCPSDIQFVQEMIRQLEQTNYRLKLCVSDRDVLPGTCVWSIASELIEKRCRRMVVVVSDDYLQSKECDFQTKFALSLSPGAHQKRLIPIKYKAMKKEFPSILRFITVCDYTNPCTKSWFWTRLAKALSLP
Chain of recombinant TcpC (Toll/interleukin-1 receptor domain-containing protein encoded by E. coli) (from UniProt A0A0H2V8B5 1-307) (A0A0H2V8B5 whole entry, the tested form may be a part): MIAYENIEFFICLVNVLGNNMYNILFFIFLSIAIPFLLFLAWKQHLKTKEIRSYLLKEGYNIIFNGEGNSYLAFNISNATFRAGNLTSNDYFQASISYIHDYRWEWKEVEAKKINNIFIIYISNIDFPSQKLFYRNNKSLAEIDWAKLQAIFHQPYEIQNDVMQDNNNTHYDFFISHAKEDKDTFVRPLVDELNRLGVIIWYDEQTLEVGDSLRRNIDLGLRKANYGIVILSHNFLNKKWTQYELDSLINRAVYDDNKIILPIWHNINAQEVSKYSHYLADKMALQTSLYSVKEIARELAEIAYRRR
Chain of recombinant TcpC (Toll/interleukin-1 receptor domain-containing protein encoded by E. coli) (from UniProt A0A0H2V8B5 1-307) (natural protein; other documents disagree on this pair) (A0A0H2V8B5 whole entry, the tested form may be a part): as above

Take “recombinant TcpC (Toll/interleukin-1 receptor domain-containing protein encoded by E. coli) (from UniProt A0A0H2V8B5 1-307) (natural protein; other documents disagree on this pair)”: in test [1], the equilibrium dissociation constant (Kd) is 0.539 µM.

Regarding “recombinant TcpC (Toll/interleukin-1 receptor domain-containing protein encoded by E. coli) (from UniProt A0A0H2V8B5 1-307)”, the Kd with BSA is > 10000 µM.
